Test results reported in the supplement of paper PMC10065799, “High-throughput profiling of sequence recognition by tyrosine kinases and SH2 domains using bacterial peptide display” (eLife, 2023).

Experiments:
Fes = Fes (UniProt P07332); experiment: phosphorylation enrichment, bacterial display (enrichment ratio); higher = better substrate or ligand; peptides without Tyr show the background
Jak2 = Jak2 (UniProt O60674); experiment: as above
Hck = Hck (UniProt P08631); experiment: as above
AncSZ = experiment: as above
MERTK = MERTK (UniProt Q12866); experiment: as above
MERTK, sequence (Q12866 whole entry, looked up): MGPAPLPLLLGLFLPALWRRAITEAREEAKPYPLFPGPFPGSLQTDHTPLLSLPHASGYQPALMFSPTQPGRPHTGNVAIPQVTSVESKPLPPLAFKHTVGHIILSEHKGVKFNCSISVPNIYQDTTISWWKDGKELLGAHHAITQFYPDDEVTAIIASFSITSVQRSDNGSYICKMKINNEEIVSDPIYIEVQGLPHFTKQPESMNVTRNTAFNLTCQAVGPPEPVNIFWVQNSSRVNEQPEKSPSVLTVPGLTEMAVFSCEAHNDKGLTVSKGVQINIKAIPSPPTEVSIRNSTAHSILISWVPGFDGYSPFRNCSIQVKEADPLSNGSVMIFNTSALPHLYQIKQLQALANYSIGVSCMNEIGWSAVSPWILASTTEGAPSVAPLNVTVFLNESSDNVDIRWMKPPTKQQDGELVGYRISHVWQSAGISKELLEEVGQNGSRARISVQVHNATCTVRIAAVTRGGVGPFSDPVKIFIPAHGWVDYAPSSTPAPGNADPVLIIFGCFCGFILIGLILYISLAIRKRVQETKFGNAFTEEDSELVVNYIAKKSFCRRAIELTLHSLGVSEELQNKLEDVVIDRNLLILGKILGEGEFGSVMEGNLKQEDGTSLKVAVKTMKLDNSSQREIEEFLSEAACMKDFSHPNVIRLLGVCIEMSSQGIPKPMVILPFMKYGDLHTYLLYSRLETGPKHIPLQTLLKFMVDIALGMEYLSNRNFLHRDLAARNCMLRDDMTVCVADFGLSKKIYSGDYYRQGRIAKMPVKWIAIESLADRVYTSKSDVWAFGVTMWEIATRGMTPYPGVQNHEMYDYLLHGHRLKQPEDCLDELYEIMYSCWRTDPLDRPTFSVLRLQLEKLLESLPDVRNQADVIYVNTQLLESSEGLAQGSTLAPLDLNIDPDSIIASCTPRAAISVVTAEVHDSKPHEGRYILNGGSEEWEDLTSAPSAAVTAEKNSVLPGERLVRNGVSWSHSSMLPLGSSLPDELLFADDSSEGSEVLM

Fyn = Fyn (UniProt P06241); experiment: as above
c-Abl (mouse) = experiment: as above
EPHB1 = EPHB1 (UniProt P54762); experiment: as above
FGFR1 = FGFR1 (UniProt P11362); experiment: as above
EPHB2 = EPHB2 (UniProt P29323); experiment: as above
EPHB2, sequence (P29323 whole entry, looked up): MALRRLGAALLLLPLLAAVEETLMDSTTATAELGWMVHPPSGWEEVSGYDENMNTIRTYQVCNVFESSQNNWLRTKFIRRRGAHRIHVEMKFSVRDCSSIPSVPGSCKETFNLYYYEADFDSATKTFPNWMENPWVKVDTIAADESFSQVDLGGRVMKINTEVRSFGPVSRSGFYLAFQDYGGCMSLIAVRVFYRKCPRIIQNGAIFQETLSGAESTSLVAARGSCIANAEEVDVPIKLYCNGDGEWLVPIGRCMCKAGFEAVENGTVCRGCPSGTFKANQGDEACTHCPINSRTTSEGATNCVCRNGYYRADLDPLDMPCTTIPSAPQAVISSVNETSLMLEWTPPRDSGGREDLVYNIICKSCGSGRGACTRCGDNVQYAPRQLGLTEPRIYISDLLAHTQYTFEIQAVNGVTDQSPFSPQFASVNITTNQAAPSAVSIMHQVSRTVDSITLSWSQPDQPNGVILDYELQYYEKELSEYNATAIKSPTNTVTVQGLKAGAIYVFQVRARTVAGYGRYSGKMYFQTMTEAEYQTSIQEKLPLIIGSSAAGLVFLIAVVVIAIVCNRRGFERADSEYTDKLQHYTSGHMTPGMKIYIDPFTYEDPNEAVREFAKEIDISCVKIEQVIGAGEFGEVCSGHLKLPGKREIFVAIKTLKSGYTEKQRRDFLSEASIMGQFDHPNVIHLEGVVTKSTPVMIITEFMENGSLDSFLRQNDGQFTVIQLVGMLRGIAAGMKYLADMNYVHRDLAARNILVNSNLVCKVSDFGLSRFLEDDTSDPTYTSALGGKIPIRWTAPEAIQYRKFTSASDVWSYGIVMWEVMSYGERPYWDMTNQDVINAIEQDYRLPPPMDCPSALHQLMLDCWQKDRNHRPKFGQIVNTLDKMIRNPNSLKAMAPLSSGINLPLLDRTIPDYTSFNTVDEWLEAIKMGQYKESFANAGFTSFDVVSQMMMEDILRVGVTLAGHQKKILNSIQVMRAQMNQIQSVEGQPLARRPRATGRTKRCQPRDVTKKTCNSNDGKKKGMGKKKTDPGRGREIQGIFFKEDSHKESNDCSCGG

Fer (mouse) = experiment: as above
c-Src = experiment: as above
FGFR3 = FGFR3 (UniProt P22607); experiment: as above
Grb2 SH2 = Grb2 SH2 (UniProt P62993); experiment: SH2 binding enrichment of the phosphorylated peptide, bacterial display (enrichment ratio); higher = better substrate or ligand; peptides without Tyr show the background
Grb2 SH2, sequence (P62993 whole entry, looked up): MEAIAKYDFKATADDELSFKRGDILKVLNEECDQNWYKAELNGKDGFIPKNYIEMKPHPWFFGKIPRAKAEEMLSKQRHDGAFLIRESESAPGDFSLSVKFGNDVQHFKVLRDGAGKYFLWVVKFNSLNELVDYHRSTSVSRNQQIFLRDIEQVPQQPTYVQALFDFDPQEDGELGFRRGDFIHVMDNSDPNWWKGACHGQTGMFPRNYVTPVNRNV

c-Src SH2 = experiment: as above
SHP2-C SH2 = experiment: as above
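For SH2 binding enrichment of the phosphorylated peptide, bacterial display in this document: peptide library displayed on the E. coli surface as eCPX fusions, selected cells deep-sequenced, score is each peptide's frequency after selection divided by its frequency in the input.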
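For phosphorylation enrichment, bacterial display in this document: 11-residue human phosphosite peptides and single-mutation variants displayed on the E. coli surface, counted by deep sequencing, each peptide's frequency after selection divided by its frequency in the unselected input library; frequency after pTyr selection over input frequency; kinase dosed for 20-30% of maximal phosphorylation in three min.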

Hck, sequence (P08631 whole entry, looked up): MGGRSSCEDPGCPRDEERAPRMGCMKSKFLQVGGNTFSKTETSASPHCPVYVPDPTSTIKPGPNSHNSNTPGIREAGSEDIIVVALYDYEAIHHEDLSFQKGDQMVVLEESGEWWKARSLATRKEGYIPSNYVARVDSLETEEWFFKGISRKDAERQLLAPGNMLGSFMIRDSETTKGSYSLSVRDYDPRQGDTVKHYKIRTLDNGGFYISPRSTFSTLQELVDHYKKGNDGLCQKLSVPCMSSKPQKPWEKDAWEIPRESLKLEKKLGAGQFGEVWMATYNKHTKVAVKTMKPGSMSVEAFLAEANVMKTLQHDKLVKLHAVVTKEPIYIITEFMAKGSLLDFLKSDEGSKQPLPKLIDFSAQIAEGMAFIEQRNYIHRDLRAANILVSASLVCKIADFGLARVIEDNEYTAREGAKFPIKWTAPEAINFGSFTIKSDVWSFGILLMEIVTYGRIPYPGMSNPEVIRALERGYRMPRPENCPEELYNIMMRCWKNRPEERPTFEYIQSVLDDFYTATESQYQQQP
Jak2, sequence (O60674 whole entry, looked up): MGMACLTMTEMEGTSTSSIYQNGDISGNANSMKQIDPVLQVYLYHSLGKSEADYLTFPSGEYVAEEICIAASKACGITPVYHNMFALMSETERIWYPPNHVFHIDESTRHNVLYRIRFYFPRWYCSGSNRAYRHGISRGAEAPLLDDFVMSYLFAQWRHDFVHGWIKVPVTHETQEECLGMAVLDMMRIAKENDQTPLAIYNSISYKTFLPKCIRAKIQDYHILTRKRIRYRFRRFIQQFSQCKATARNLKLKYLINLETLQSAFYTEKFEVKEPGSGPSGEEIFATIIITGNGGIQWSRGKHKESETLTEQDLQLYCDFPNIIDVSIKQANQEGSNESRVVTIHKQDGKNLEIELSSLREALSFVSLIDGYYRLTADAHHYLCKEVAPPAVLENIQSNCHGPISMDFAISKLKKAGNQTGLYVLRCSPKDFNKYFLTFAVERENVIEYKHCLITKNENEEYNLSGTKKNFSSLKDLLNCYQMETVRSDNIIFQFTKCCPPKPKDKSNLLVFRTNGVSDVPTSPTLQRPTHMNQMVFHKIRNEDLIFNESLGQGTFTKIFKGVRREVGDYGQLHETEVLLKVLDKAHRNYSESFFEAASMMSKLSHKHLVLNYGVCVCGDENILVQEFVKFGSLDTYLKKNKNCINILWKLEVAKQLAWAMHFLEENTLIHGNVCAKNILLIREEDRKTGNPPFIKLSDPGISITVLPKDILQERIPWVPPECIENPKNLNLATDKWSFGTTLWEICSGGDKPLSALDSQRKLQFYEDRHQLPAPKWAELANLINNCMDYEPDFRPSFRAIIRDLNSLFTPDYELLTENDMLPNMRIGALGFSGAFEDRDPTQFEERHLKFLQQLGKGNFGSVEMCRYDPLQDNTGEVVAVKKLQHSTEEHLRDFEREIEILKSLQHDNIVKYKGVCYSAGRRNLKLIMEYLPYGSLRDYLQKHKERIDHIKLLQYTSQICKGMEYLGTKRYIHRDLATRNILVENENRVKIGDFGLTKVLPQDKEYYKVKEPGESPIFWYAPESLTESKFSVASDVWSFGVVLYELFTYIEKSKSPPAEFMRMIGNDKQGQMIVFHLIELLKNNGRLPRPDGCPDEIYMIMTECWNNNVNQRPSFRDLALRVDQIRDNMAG
Fes, sequence (P07332 whole entry, looked up): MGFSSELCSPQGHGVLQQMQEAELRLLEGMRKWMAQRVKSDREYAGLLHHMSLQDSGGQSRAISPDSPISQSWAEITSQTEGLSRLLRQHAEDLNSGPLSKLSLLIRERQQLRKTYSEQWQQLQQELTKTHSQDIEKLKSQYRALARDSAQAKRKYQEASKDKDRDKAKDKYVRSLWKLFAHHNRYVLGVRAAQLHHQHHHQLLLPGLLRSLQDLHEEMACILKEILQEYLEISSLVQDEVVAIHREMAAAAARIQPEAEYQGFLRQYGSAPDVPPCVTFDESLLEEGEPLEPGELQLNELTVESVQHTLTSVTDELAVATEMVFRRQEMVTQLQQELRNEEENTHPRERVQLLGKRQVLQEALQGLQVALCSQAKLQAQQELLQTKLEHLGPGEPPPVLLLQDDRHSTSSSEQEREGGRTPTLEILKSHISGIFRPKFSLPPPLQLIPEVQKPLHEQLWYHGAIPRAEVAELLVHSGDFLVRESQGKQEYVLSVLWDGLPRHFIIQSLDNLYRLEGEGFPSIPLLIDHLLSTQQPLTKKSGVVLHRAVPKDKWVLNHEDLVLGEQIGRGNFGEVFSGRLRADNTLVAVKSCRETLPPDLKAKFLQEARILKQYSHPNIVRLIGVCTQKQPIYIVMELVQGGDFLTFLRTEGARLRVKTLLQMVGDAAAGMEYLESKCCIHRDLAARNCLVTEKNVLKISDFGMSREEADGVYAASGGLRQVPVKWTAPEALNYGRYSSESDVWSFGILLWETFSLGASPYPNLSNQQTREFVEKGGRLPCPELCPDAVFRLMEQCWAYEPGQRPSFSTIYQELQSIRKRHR

Sequence	phosphorylation enrichment (Fes)	phosphorylation enrichment (Jak2)	phosphorylation enrichment (Hck)	phosphorylation enrichment (AncSZ)	phosphorylation enrichment (MERTK)	phosphorylation enrichment (Fyn)	phosphorylation enrichment (c-Abl (mouse))	phosphorylation enrichment (EPHB1)	phosphorylation enrichment (FGFR1)	phosphorylation enrichment (EPHB2)	phosphorylation enrichment (Fer (mouse))	phosphorylation enrichment (c-Src)	phosphorylation enrichment (FGFR3)	SH2 binding enrichment (Grb2 SH2)	SH2 binding enrichment (c-Src SH2)	SH2 binding enrichment (SHP2-C SH2)
SAAAIYMVRHP [PMP22_Y117_T118M]	0.77	0.587	7.71	0.756	3.25	4.97	1.65	2.45	0.425	1.82	0.53	5.44	0.519	0.884	0.68	1.02
RSRQIYDAFIM [GRK3_Y109_YF]	0.48	0.359	6.86	0.51	7.46	8.83	9.12	2.49	0.339	2.6	9.57	6.12	0.7	0.66	0.64	0.592
MASTSYDFCRV [BST2_Y6_YF]	0.919	0.796	0.473	0.944	0.709	0.486	0.622	0.576	0.572	0.613	2.25	0.525	0.829	0.99	1.66	0.727
DLNATYRTIQG [U2SURP_Y634]	0.846	0.609	0.688	0.631	0.473	0.646	0.641	0.578	0.583	0.751	0.518	0.674	0.6	0.876	0.813	0.814
KDHPDYKFQLR [SOX10_Y171_P175L_YF]	0.824	0.698	0.406	0.798	0.454	0.409	0.512	0.49	0.478	0.492	0.65	0.512	0.633	0.772	0.649	0.691
RLLVVYRWTQR [HBB_Y36_P37R]	1.25	0.926	0.567	1.56	0.463	0.639	0.601	0.372	0.652	0.787	0.711	0.402	0.761	0.663	0.493	0.799
VYSIDYYRVGG [NTRK2_Y706_T704I]	0.836	7.33	3.95	2.29	9.3	6.29	0.788	4.12	10.9	3.13	3.79	5.1	9.09	0.884	2	1.61
VTQEQYELYCE [CBL_Y368]	1.32	1.17	0.989	1.75	0.571	0.684	0.883	0.814	0.622	0.71	0.887	0.892	0.894	1.04	0.625	0.577
VSFDEYRFRSV [CFTR_Y515_YF]	1.22	1.14	0.574	0.972	0.6	0.489	0.862	0.519	0.515	0.591	0.567	0.614	0.699	0.776	0.477	0.55
GIVEDYRPPLF [ACVRL1_Y421_F425L_YF]	0.904	0.626	0.343	0.841	0.377	0.458	0.511	0.442	0.434	0.418	0.406	0.373	0.722	0.801	0.349	0.671
HKANEYYPVVI [ADAMTS18_Y764_L769I]	0.746	2.19	0.723	2.1	0.558	0.676	0.61	1.01	17.4	0.599	1.26	0.427	13.1	0.665	0.587	1.06
HVIKLYGACSQ [RET_Y791]	1.58	1.6	0.661	1.13	0.423	0.489	1.1	0.875	0.627	0.768	0.545	0.713	0.84	0.643	0.537	0.763
VFSTDYFRVGG [NTRK2_Y706_YF]	0.859	8.12	0.459	1.69	0.587	0.464	0.734	0.826	6.21	0.709	0.499	0.757	3.75	0.761	0.556	0.697
PDSVDYRKKGY [CTSK_Y121]	1.08	1.01	0.78	1.07	0.823	0.749	0.976	0.599	1.06	1.67	0.657	0.905	0.661	1.14	0.686	0.708
VSSPKYGGDDE [TMCC2_Y473_S475G]	0.903	0.631	0.429	0.96	0.416	0.535	0.517	0.437	0.477	0.379	0.451	0.424	0.573	1.06	0.482	0.54
GNHISYYQSDG [CACNA1C_Y1757_V1755I]	0.569	0.484	0.397	0.821	0.411	0.514	0.403	0.668	0.655	0.4	0.367	0.496	0.569	0.885	2.32	0.751
PLLTDYSPQLQ [OTC_Y345_S340P]	1.9	0.964	0.951	1.54	0.965	0.698	1.02	1.11	1.19	1.17	0.879	0.616	1.19	1	0.445	0.656
